Assay results taken from patent CN117603358A (INST MICROBIOLOGY CAS; 3SBIO GROUP; SHANXI ADVANCED …, dated 2024).

B1: L4.65单抗 (antibody, V domains shown)
VH: QITLKESGPTLVKPTQTLTLTCTFSGFSLSTSGVGVAWIRQPPGKALEWLALIYWDNDKRSSPSLNNRLTITKDTSKNQVVLTMTNMDPEDTATYYCAHFFSHYDSSNYYYGSWFDPWGQGTLVTVSS
VL: EIVLTQSPGTLSLSPGERATLSCRASQSFDSRYLGWYQQKSGQAPRLLIYGASSRATGIPDRFSGSGSGTDFTLTISRLEPEDFAVYYCQQFGDSPFTFGQGTKLEIKR
B2: CoV56单抗 (antibody, V domains shown)
VH: EVQLVESGGGVVQPGGSLRLSCAVSGFTFDDYAMHWVRQAPGKGLDWVSLISGDGSYTYYADSVKGRFTISRDSSKNSLYLQMNSLRTEDTALYYCAKAQTPTLWWLQDAFDIWGQGTMVTVSS
VL: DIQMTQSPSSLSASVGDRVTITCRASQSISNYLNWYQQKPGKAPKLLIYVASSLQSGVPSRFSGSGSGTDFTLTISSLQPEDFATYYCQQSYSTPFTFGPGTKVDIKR

Target: S蛋白, SARS-CoV-2原型毒株 (SARS-CoV-2 (prototype), UniProt P0DTC2 14-1273)
Assay: cell-based or functional assay

Binder	假病毒中和效果 IC50
B1	0.000709 µg/mL
B2	8.38 µg/mL
